Series [1] deals with T1, MNK1a (MKNK1 isoform a) (UniProt Q9BUB5-2 Q9BUB5-2:1-424). In words: ELONA; BSA-free aptamer buffer, 37 C; also detected in apta-western. The note with it: tags: GST fusion; label: biotin; G4 (parallel, five-tiered from 3- and 2-tier quadruplexes). Here is the method:
(§1) To determine the binding of the aptamers to MNK1a or MNK1b, 200 ng of protein/well diluted in a coating solution (KPL, USA) in a final volume of 100 μL/well were added to a Maxisorp Nunc 96-well ELISA plate (ThermoFisher Scientific, USA). The plate was incubated overnight at 4° C. under stirring. Aptamers were then added at the corresponding concentration according to the assay, in a final volume of 100 μL/well of BSA-free aptamer buffer for 1 hour at 37° C. under stirring. All the aptamers used were labeled with biotin and had been previously denatured at 90° C. for 10 minutes and then kept at 4° C. for 10 minutes in the BSA-free aptamer buffer. To detect the binding of the aptamer to the protein, 100 μL/well of streptavidin-peroxidase (GE Healthcare, United Kingdom) diluted 1/1000 in the aptamer buffer at 37° C. for 1 hour under stirring were added. To develop the plate, 100 μL/well of ABTS solution (Roche, Switzerland) were added, and it was incubated in darkness at room temperature, with measurements being taken every 10 minutes at a wavelength of 405 nm in an Infinite F200 spectrophotometer (TECAN, Switzerland).
(§2) To analyze the affinity of the new aptamer apMNKQ2, ELONA assays were carried out with the four MNK1 constructs.

Series [2] has as its target T2, MNK1b (MKNK1 isoform b) (UniProt Q9BUB5-3 Q9BUB5-3:1-347). Description: ELONA; BSA-free aptamer buffer, 37 C; four-fold higher affinity than MNK1a; preferentially recognised in native apta-western. The settings on record: tags: GST fusion; label: biotin; G4 (parallel, five-tiered from 3- and 2-tier quadruplexes). Here is the method:
as §1, §2

The target of series [3] is T2, MNK1b (MKNK1 isoform b). In words: recognised both isoforms in a similar manner; data not shown. The settings on record: tags: GST fusion; label: biotin; G4 predicted.
The target of series [4] is T1, MNK1a (MKNK1 isoform a). The description is as above. The note with it: tags: GST fusion; label: biotin; G4 predicted.

T1 sequence (Q9BUB5 other isoform, or with tags, fused parts or gaps): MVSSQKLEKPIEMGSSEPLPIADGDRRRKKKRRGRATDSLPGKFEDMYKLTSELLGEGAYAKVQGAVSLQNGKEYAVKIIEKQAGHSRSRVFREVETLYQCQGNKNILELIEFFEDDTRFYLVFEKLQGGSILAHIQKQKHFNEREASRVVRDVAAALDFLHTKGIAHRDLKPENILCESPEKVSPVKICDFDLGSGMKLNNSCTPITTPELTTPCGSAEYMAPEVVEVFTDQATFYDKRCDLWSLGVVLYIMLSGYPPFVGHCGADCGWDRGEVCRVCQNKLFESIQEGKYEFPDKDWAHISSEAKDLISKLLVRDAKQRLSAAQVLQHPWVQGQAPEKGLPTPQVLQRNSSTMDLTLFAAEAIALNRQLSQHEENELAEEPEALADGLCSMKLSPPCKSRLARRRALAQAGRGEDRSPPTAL
T2 sequence (Q9BUB5 other isoform, or with tags, fused parts or gaps): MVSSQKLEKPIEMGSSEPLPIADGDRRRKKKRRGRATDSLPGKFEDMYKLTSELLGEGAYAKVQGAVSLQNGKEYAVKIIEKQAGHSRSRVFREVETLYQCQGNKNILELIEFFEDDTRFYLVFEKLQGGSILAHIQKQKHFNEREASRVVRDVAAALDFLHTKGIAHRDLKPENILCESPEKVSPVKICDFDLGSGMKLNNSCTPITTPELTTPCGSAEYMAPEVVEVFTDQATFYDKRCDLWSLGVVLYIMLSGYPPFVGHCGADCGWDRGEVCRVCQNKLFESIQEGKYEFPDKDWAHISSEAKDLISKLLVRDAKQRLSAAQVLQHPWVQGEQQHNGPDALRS

Consider TGGGGTGGGCGGGCGGGGGTGGGGGTGGT (structured_DNA) [apMNKQ2], for which the Kd (usually the constant that tells how readily two partners part at equilibrium) worked out at 66.1 nM with MNK1a (MKNK1 isoform a) [1] and 15.5 nM with MNK1b (MKNK1 isoform b) [2].
Regarding TTTTTGGGGTGGGCGGGCGGGGGTGGGGGTGGTATGGCGCGTTGGCCC (structured_DNA) [apMNK2FT], the binding result in the series with MNK1b (MKNK1 isoform b) [3] and with MNK1a (MKNK1 isoform a) [4] was “binds” each time.

The values above are taken from patent US20220042018, “APTAMERS AND THE USE THEREOF IN THE TREATMENT OF CANCER” (FUNDACIÓn PARA LA INVESTIGACIÓn BIOMÉDICA …, published 2022).
